{
  "source": "patent US12655409B2",
  "about": "“Recombinant lysin and its use in the treatment of Gram-negative bacterial infections” (TELUM THERAPEUTICS S.L., priority 2020, dated 2026)",
  "molecules": {"B1": {"name": "IKB206: fusion of Enterobacter phage Arya putative endolysin (SEQ ID NO:1) and domain D8 of Bacillus amyloliquefaciens phage endolysin (SEQ ID NO:2), without tags (protein)", "chain": "MKTSPNGIAVTKYFESFEARAYPDPATGGKPYTIGFGTTVYPSGAPVRLGDVCTKEQAEKYLQNDLAKFEKIVSDAVRVPLNQGQFDALVSFTYNLGPANLRSSTLLKKLNAGDYAGAAKEFPRWNRANGKVMKGLTRRRAAEQCLFEGMGGASAIERGVAAANSGTPKNVSRGTSSTKTTPKYKVKNGDNLTKIAKKHNTTVATLLKLNPGIKDPNMIRVGQTLNVTGSGGKTHKVKSGDTLSKIAVDNKTTVSKLMNLNPEITNPNHIKVGQTIRLS", "modifications": "Chimeric endolysin (SEQ ID NO1 + SEQ ID NO2)"}},
  "key": {"Klebsiella pneumoniae": {"system": "Klebsiella pneumoniae", "test": "Enzyme bactericidal activity assay on K. pneumoniae", "type": "cell-based", "description": "(§1) Briefly, the different bacterial cultures were incubated in the specific media (Table 1) at 37° C. or 30° C., according to the strain, until reaching an A600 of 0.3. The cells were then deposited by centrifugation (4500×g, 10 min) and washed twice with the corresponding buffer, with the A600 being adjusted to ≈0.3. […] The control wells were treated with the same volume of buffer […]. The plates were incubated at 37° C. Samples were taken at different times, serial dilutions performed, and they were seeded in plates containing the specific medium to determine viable bacteria. The experiments were repeated at least 3 times. The bactericidal effect of IKB206 (and its variants) was quantified as the number of logs reduced in the presence of treatment, after a given incubation time (log10 (N0/Ni), where N0=number of CFU mL^−1 before treatment, and Ni=number of CFU mL^−1 after the corresponding incubation time in the presence of each treatment)."}, "[1]": {"conditions": "uninfected fish, 1 μg g-1", "description": "The intraperitoneal (IP) route is chosen for an infection model as it is easy and quick to implement, turning this technique into one that is particularly indicated for use in different groups of experimentation animals. One hour after infection with E. coli ATCC 25922, different doses of IKB206 were administered to each of the groups. […] Furthermore, to determine the toxicity of IKB206 in adult fish, assays in which uninfected fish were inoculated with the highest amount of protein used in the efficacy assays (1 μg g-1) were performed."}, "[2]": {"system": "E. coli strain DSM 17076 with serotype O157: H7", "test": "Enzyme bactericidal activity assay on E. coli serotype O157:H7", "type": "cell-based, Escherichia coli", "conditions": "15 μg mL^−1", "description": "(§2) Briefly, the different bacterial cultures were incubated in the specific media (Table 1) at 37° C. or 30° C., according to the strain, until reaching an A600 of 0.3. The cells were then deposited by centrifugation (4500×g, 10 min) and washed twice with the corresponding buffer, with the A600 being adjusted to ≈0.3. A volume of 160 μl of the bacterial suspension was transferred to sterile 96-well plates to which there were added 40 μl of the enzyme under study in a range of doses comprised between 1 and 60 μg mL^−1. The control wells were treated with the same volume of buffer […]. The plates were incubated at 37° C. Samples were taken at different times, serial dilutions performed, and they were seeded in plates containing the specific medium to determine viable bacteria. The experiments were repeated at least 3 times. The bactericidal effect of IKB206 (and its variants) was quantified as the number of logs reduced in the presence of treatment, after a given incubation time (log10 (N0/Ni), where N0=number of CFU mL^−1 before treatment, and Ni=number of CFU mL^−1 after the corresponding incubation time in the presence of each treatment)."}, "Pseudomonas aeruginosa": {"system": "Pseudomonas aeruginosa", "test": "Enzyme bactericidal activity assay on P. aeruginosa", "type": "cell-based", "description": "as §1"}, "E. coli ATCC 25922 [3]": {"system": "E. coli ATCC 25922", "test": "Efficacy assay using a sepsis model in zebrafish", "type": "in vivo", "conditions": "72 hpi", "description": "Once the minimum lethal dose is determined, the six-month old wild-type zebrafish (1.2 grams) were inoculated intraperitoneally (IP) with a total of 10 μl containing 5.5×10^7 CFU mL^−1 of the bacterium E. coli grown in LB medium. All the experiments were repeated at least three times.\nTo study the protection mediated by the chimera IKB206tags, groups of five (5) six-month old wild-type female zebrafish were infected intraperitoneally (IP) with a lethal dose of the bacterium E. coli (5.5×10^7 CFU). After 1 h, the animals were treated by administering 10 μl of IKB206tags subcutaneously with a dose of 1, 0.5, and 0.25 mg kg-1 of body weight. The fish included in the control group were treated with the buffer in which the protein is dissolved. The animals were observed several times a day and the number of deaths was recorded daily 72 hours post infection (hpi)."}, "[4]": {"system": "E. coli strain ATCC 25922", "test": "Stability studies by E. coli bactericidal activity assay", "type": "physicochemical, Escherichia coli", "conditions": "29 days of storage; −80, −20, 4, 25° C.; glycerol 0 to 10%", "description": "To that end, E. coli strain ATCC 25922 and 15 μg mL^−1 of IKB206 dissolved in different concentrations of glycerol (0, 0.2, 2, 5 and 10%) were used. The assays were carried out at different storage temperatures (−80° C., −20° C., 4° C., 25° C.) and storage times (1, 5, 7, 14, 21 and 29 days)."}, "E. coli ATCC 25922 [5]": {"system": "E. coli ATCC 25922", "test": "MIC by microdilution in TP-Na 10 mM pH 6.15", "type": "cell-based, Escherichia coli", "description": "The IKB206tags endolysin was purified from the Escherichia coli BL21 (DE3) strain, as previously described.\nCheckerboard tests were assessed by the microdilution method, as previously described (Moody JA 1992, Moellering E G., Jr.1996). […] Each microtiter well contained 100 μl of a E. coli inoculum of 1×10^5 CFUs mL^−1, with or without the corresponding compounds, in a final volume of 200 μl of Sodium phosphate (TP-Na) buffer 10 mM pH 6.15 per well and the plates were incubated at 37° C. for 17 h."}, "Serratia marcescens": {"system": "Serratia marcescens", "test": "Enzyme bactericidal activity assay on S. marcescens", "type": "cell-based", "conditions": "incubation time of 120 min", "description": "as §2"}, "[6]": {"system": "strains from S. xylosus, E. avium, E. faecium and E. faecalis", "test": "Enzyme bactericidal activity assay on strains of chicken microbiota", "type": "cell-based", "conditions": "15 μg mL^−1", "description": "as §2"}, "[7]": {"system": "E. coli strain ATCC 25922", "test": "Enzyme bactericidal activity assay on E. coli ATCC 25922", "type": "cell-based, Escherichia coli", "description": "as §2"}, "human HEK293 cells": {"system": "human HEK293 cells", "test": "Cytotoxicity assay by means of sulforhodamine B", "type": "cell-based", "conditions": "50 to 400 μg mL^−1, 48 h", "description": "A seeding test was performed with human HEK293 cells before performing the experiment. To that end, three different cell concentrations were seeded in a 96-well plate in 100 μl of DMEM medium+10% Fetal Bovine Serum (FBS). These cells were incubated at 37° C. and 5% CO2 for 72 h, monitoring growth. The initial cell concentration showing 80% confluence at 72 h was selected for the further assays, which in this case was 7000 cells/well. Twenty-four hours after seeding the cells, another 100 μl of medium with the concentrations of purified protein IKB206tags to be tested was added. In this case, 400 μg mL^−1, 200 μg mL^−1, 100 μg mL^−1, and 50 μg mL^−1. The assays were performed in quadruplicate. As controls, the cells were incubated only with culture media and with the buffer in which the protein is dissolved (vehicle control). Buffer volume added as a vehicle control was the same volume of the highest protein concentration. The plate was left to incubate for another 48 h. The results were obtained by means of fixing the cells by adding 50 μl of 50% cold trichloroacetic acid (TCA) per well and leaving the plate to incubate for 1 h at room temperature. After discarding the TCA, the plate was washed with distilled water and 40 μl of 0.4% sulforhodamine B (SRB) were added. […] The results were read in Cytation (Bioteck, USA) at an absorbance of 510 nm."}, "Acinetobacter baumannii": {"system": "Acinetobacter baumannii", "test": "Enzyme bactericidal activity assay on A. baumannii", "type": "cell-based", "description": "as §1"}, "Citrobacter freundii": {"system": "Citrobacter freundii", "test": "Enzyme bactericidal activity assay on C. freundii", "type": "cell-based", "conditions": "compared with E. coli or K. pneumoniae", "description": "as §2"}},
  "data": [
    {"molecule": "B1", "values": [
      {"measurement": "bactericidal activity", "setting": "Klebsiella pneumoniae; 15 μg mL^−1, 120 min", "value": "bactericidal activity"},
      {"measurement": "killing of the cells present in the assay", "setting": "Klebsiella pneumoniae; 150 μg mL-1, 120 min", "value": "capable of killing all the cells present in the assay"},
      {"measurement": "bactericidal activity (reduction)", "setting": "Klebsiella pneumoniae; under the tested conditions (15 or 150 μg mL^−1)", "value": "≥ 4", "unit": "logarithms"},
      {"measurement": "toxicity in adult fish versus protein buffer", "setting": "[1]", "value": "no differences"},
      {"measurement": "bactericidal activity on serotype O157:H7", "setting": "[2]", "value": "excellent activity"},
      {"measurement": "bactericidal activity", "setting": "Pseudomonas aeruginosa; 15 μg mL^−1, 120 min", "value": "bactericidal activity"},
      {"measurement": "killing of the cells present in the assay", "setting": "Pseudomonas aeruginosa; 150 μg mL-1, 120 min", "value": "capable of killing all the cells present in the assay"},
      {"measurement": "reductions in CFU/mL", "setting": "Pseudomonas aeruginosa; 15 or 150 μg mL^−1", "value": "more than 4 logs"},
      {"measurement": "survival (protection)", "setting": "E. coli ATCC 25922 [3]; 1 μg g-1 (1 mg kg-1) subcutaneously 1 h after infection", "value": 66.6, "unit": "%"},
      {"measurement": "survival (protection)", "setting": "E. coli ATCC 25922 [3]; 0.25 mg kg-1 subcutaneously 1 h after infection", "value": 16.6, "unit": "%"},
      {"measurement": "survival (protection)", "setting": "E. coli ATCC 25922 [3]; 0.5 mg kg-1 subcutaneously 1 h after infection", "value": 33.3, "unit": "%"},
      {"measurement": "stability (bactericidal activity after storage)", "setting": "[4]", "value": "still fully active"},
      {"measurement": "MIC", "setting": "E. coli ATCC 25922 [5]", "value": 9.375, "unit": "mg/L"},
      {"measurement": "bactericidal effect", "setting": "Serratia marcescens", "value": "~3", "unit": "logarithms"},
      {"measurement": "bactericidal effect on chicken gut microbiota strains", "setting": "[6]", "value": "virtually no effect"},
      {"measurement": "reduction in CFU mL^−1", "setting": "[7]; 5 μg mL^−1, 15 min of incubation", "value": "significantly reducing"},
      {"measurement": "incubation time for killing the entire culture", "setting": "[7]; 15 μg mL^−1", "value": 30, "unit": "min"},
      {"measurement": "reduction of the number of CFU mL^−1", "setting": "[7]; 15 μg mL^−1, 5 minutes of incubation", "value": "significantly reducing"},
      {"measurement": "bactericidal effect (log reduction)", "setting": "[7]; 15 μg mL^−1, 15 minutes of incubation", "value": "more than 3 log"},
      {"measurement": "reduction of the bacterial suspension", "setting": "[7]; 15 μg mL^−1, 30 min of incubation", "value": 5, "unit": "log"},
      {"measurement": "incubation time for killing the entire culture", "setting": "[7]; 60 μg mL^−1", "value": 15, "unit": "min"},
      {"measurement": "cytotoxicity versus control (culture media)", "setting": "human HEK293 cells", "value": "not toxic"},
      {"measurement": "bactericidal activity", "setting": "Acinetobacter baumannii; 15 μg mL^−1, 120 min", "value": "bactericidal activity"},
      {"measurement": "killing of the cells present in the assay", "setting": "Acinetobacter baumannii; 150 μg mL-1, 120 min", "value": "capable of killing all the cells present in the assay"},
      {"measurement": "reductions in CFU/mL", "setting": "Acinetobacter baumannii; 15 or 150 μg mL^−1", "value": "more than 4 logs"},
      {"measurement": "bactericidal activity", "setting": "Citrobacter freundii", "value": "significantly lower than that observed in E. coli or K. pneumoniae"}
    ]}
  ]
}
